In patent US20220348651A1 (Novartis, published 2022):

T1: recombinant cyno ENTPD2 extracellular domain (residues 29-462) with C-terminal Avi-His6 tag (cynomolgus macaque, UniProt Q9Y5L3 29-462 (human entry))
T1 construct: also called cynomologus (cyno) ENTPD2 ECD
T1 chain (part 1 of 2): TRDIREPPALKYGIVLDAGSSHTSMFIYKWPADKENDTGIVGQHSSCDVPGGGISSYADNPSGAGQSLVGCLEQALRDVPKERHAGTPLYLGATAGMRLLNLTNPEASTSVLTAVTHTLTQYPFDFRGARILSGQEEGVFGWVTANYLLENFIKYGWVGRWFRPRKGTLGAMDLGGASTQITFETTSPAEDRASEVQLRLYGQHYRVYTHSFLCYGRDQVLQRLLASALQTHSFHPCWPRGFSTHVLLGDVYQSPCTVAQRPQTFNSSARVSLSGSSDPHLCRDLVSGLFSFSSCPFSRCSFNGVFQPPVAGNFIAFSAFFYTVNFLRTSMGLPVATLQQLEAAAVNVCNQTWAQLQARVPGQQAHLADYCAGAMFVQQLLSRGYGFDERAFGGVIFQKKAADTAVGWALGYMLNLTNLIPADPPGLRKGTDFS
T1 chain (part 2 of 2): HHHHHH

T2: human ENTPD2 expressed on cells (human, UniProt Q9Y5L3 1-495)
T2 construct: full-length human ENTPD2 on engineered cells; also called NIH3T3 humanENTPD2; NIH/3T3-hENTPD2
T2 sequence: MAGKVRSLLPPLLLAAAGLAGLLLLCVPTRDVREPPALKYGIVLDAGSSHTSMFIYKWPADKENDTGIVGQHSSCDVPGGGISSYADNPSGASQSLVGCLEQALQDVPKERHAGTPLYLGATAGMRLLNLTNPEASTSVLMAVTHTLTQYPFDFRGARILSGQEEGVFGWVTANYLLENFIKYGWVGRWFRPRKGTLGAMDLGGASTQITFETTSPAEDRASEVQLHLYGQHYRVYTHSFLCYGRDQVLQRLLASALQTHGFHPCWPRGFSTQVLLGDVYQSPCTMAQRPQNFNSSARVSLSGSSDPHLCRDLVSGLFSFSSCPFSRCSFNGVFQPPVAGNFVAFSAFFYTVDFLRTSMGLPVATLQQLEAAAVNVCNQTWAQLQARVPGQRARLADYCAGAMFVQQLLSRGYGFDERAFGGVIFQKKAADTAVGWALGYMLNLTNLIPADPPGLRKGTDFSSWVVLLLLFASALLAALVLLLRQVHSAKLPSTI

T3: cyno ENTPD2 expressed on NIH/3T3 cells (cynomolgus macaque, UniProt Q9Y5L3 1-495 (human entry))
T3 chain: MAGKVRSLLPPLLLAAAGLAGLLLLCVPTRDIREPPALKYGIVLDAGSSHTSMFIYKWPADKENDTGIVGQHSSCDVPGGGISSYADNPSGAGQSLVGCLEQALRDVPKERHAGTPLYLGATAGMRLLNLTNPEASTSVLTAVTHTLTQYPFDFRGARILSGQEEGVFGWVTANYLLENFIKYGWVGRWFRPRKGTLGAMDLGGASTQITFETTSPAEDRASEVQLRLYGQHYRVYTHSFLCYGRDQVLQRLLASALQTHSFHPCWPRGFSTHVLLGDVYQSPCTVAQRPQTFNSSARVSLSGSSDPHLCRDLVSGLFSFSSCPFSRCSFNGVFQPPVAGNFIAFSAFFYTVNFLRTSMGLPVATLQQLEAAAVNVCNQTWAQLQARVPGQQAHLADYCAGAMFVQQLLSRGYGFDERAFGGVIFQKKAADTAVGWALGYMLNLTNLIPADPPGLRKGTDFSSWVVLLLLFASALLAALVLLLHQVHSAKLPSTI

T4: recombinant monomeric mouse ENTPD2 extracellular domain (residues 29-462) with His6 tag (mouse, UniProt O55026 29-462)
T4 sequence: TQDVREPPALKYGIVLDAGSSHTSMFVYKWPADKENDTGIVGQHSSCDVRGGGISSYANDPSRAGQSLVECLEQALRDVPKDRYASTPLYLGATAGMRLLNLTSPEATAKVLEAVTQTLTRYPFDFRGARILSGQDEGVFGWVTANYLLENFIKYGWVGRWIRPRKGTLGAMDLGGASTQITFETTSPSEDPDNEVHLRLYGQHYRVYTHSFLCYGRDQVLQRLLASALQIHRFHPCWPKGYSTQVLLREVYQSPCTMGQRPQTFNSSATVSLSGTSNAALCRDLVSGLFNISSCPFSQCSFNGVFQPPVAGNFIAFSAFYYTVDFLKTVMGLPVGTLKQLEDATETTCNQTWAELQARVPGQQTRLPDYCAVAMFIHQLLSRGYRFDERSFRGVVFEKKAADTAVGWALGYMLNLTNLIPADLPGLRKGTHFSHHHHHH

B1: ANTI-HUMAN ENTPD2 MAB1 (antibody, human IgG1, kappa)
heavy: not shown
light: DIQLTQSPSSLSASVGDRVTITCSASSSVSYIHWFQQKPGKAPKLLIYSTSNLASGVPSRFSGSGSGTFFTLTISSLQPEDFATYFCHQWSSYPWTFGQGTKVEIKRTVAAPSVFIFPPSDEQLKSGTASVVCLLNNFYPREAKVQWKVDNALQSGNSQESVTEQDSKDSTYSLSSTLTLSKADYEKHKVYACEVTHQGLSSPVTKSFNRGEC
notes: humanized from mAb17; human IgG1, kappa; also called anti-ENTPD2 mAb1
B2: ANTI-HUMAN ENTPD2 MAB4 (antibody, human IgG1, kappa, V domains shown)
VH: QIQLQESGPGLVKPSQTLSLTCTVSGYSITSGYYWNWIRQHPGKGLEWIGYISYDADNNYNPSLKNRVTISRDTSKNQFSLKLSSVTAADTAVYYCAGGYYRYGLGSYRGSYYYVMDYWGQGTTVTVSS
VL: ETVLTQSPATLSVSPGERATISCKASQSVDYEGHSYMNWYQQKPGQAPRLLIYAASNLESGIPARFSGSGSGTDFTLTISSVEPEDAATYYCQQSNEDPPTFGGGTKLEIKR
notes: humanized and optimized from mAb16; human IgG1, kappa; also called Anti-ENTPD2 mAb4
B3: ANTI-HUMAN ENTPD2 MAB2 (antibody, human IgG1, kappa)
heavy: not shown
light: EIVLTQSPATLSASPGERITLSCSASSSVSYIHWYQQKPGQAPRLLIYSTSNLASGIPARFSGSGSGTFYTLTISSVEPEDAAVYYCHQWSSYPWTFGGGTKLEIKRTVAAPSVFIFPPSDEQLKSGTASVVCLLNNFYPREAKVQWKVDNALQSGNSQESVTEQDSKDSTYSLSSTLTLSKADYEKHKVYACEVTHQGLSSPVTKSFNRGEC
notes: humanized from mAb17; human IgG1, kappa; also called Anti-ENTPD2 mAb2
B4: ANTI-HUMAN ENTPD2 MAB3 (antibody, human IgG1, kappa, V domains shown)
VH: QVQLVQSGAEVVKPGASVKISCKASGYTFTDYNMDWVKQAPGQRLEWIGDINPKYDISTYNQQFKGKATITVDTSASTAYMELSSLRSEDTAVYYCARRGFFLYYGINYYYFDVWGQGTLVTVSS
VL: EIVLTQSPATLSASPGERITLSCSASSSVSYIHWYQQKPGQAPRLLIYSTSNLASGIPARFSGSGSGTFYTLTISSVEPEDAAVYYCHQWSSYPWTFGGGTKLEIKR
notes: humanized from mAb17; human IgG1, kappa; also called Anti-ENTPD2 mAb3
B5: ANTI-HUMAN ENTPD2 MAB7 (antibody, human IgG1, kappa)
heavy: not shown
light: EIVLTQSPATLSASPGEEITLSCSASSSVSYIHWYQQKPGQAPRLLIYSTSNLASGIPARFSGSGSGTFYTLTISSVEPEDAAVYYCHQWSSYPWTFGGGTKLEIKRTVAAPSVFIFPPSDEQLKSGTASVVCLLNNFYPREAKVQWKVDNALQSGNSQESVTEQDSKDSTYSLSSTLTLSKADYEKHKVYACEVTHQGLSSPVTKSFNRGEC
notes: humanized from mAb17; human IgG1, kappa; also called Anti-ENTPD2 mAb7

How the values were obtained:
[1] = biological target: T1, recombinant cyno ENTPD2 extracellular …; assay: SPR Biacore, mAb captured, ECD analyte, 25C
Procedure: (§1) Biacore Screening: Affinity was measured by determining the kinetic rate constants using surface plasmon resonance (SPR) on a Biacore T200 or T100 with the T200 sensitivity upgrade instrument (Biacore, GE Healthcare). Antibodies were captured on CM5 sensor chips (Biacore, GE Healthcare) prepared with a mouse anti-human IgG Fc antibody (ThermoFisher catalogue #05-4200) amine coupled to the surface. […] ENTPD2 analytes were allowed to associate for 180 s and dissociate for up to 1800 s depending on the off-rate of the antibody at a flow rate of 30 μL/min. The running buffer was PBS pH 7.2 (prepared from a Corning 10X stock, cat#46-013-CM)+0.05% Tween 20. […] The raw data were analyzed using Biacore T200 Evaluation Software version 1.0 and fit to a 1:1 binding model, with all parameters set to fit globally except for RI, which was set to fit locally.

[2] = biological target: T5, recombinant human ENTPD2 extracellular domain (residues 29-462) with C-terminal Avi-His6 tag (human, UniProt Q9Y5L3 29-462, biotinylated on the AviTag in the epitope binning assay); assay: SPR Biacore, mAb captured, ECD analyte, 25C
T5 construct: also called human ENTPD2 ECD; Human ENTPD2-Avi-His6 protein
Procedure: as §1

[3] = biological target: T2, human ENTPD2 expressed on cells; assay: flow cytometry, NIH3T3 human ENTPD2 cells
[4] = biological target: T2, human ENTPD2 expressed on cells; assay: flow cytometry, RKO cells (endogenous ENTPD2)
Procedure: FACS screening: Specific binding of candidate antibodies to endogenously expressed ENTPD2 was assessed by flow cytometry. […] Geometric mean fluorescence intensity was calculated on live single cells using FlowJo software.

[5] = biological target: T2, human ENTPD2 expressed on cells; assay: cell-based or functional assay
[6] = biological target: T3, cyno ENTPD2 expressed on NIH/3T3 cells; assay: cell-based or functional assay
[7] = biological target: T4, recombinant monomeric mouse ENTPD2 …; assay: SPR Biacore

| Kd [1] | koff [1] | kon [1] | Kd [2] | koff [2] | kon [2] | EC50 [3] | EC50 [4] | % inhibition, Human ENTPD2 NIH/3T3 Assay [5] | % inhibition, RKO Assay [5] | IC50, Human ENTPD2 NIH/3T3 Assay [5] | IC50, RKO Assay [5] | % inhibition, Cyno ENTPD2 NIH/3T3 Assay [6] | IC50, Cyno ENTPD2 NIH/3T3 Assay [6] | binding result [7] | Binder |
| --- | --- | --- | --- | --- | --- | --- | --- | --- | --- | --- | --- | --- | --- | --- | --- |
| 3.4 nM | 0.0012 s⁻¹ | 360000 M⁻¹ s⁻¹ | 1.7 nM | 0.00019 s⁻¹ | 110000 M⁻¹ s⁻¹ | 1.5 nM | 0.9 nM | 92% | 97% | 1.1 nM | 0.8 nM | 91% | 4.1 nM | no binding | B1 |
| 42.1 nM | 0.0057 s⁻¹ | 140000 M⁻¹ s⁻¹ | 0.7 nM | 0.00022 s⁻¹ | 300000 M⁻¹ s⁻¹ | 0.9 nM | 0.5 nM | 87% | 74% | 0.2 nM | 0.2 nM | 75% | 2.2 nM | no binding | B2 |
| 2.8 nM | 0.0012 s⁻¹ | 430000 M⁻¹ s⁻¹ | 1.7 nM | 0.00018 s⁻¹ | 110000 M⁻¹ s⁻¹ | 2.1 nM | 1.3 nM | 98% | 86% | 1.4 nM | 0.8 nM | 84% | 2.7 nM | no binding | B3 |
| 2.2 nM | 0.00098 s⁻¹ | 450000 M⁻¹ s⁻¹ | 1.3 nM | 0.00016 s⁻¹ | 130000 M⁻¹ s⁻¹ | 2.8 nM | 2.1 nM | 91% | 95% | 1.8 nM | 1.6 nM | 84% | 5.8 nM | no binding | B4 |
| 1.1 nM | 0.0012 s⁻¹ | 1.2e+06 M⁻¹ s⁻¹ | 0.9 nM | 0.00019 s⁻¹ | 210000 M⁻¹ s⁻¹ | 0.5 nM | 0.4 nM | 95% | 92% | 0.8 nM | 0.6 nM | 82% | 2.7 nM | no binding | B5 |
